Test results: patent US12029792B2, “Stereocomplexes for the delivery of anti-cancer agents” (priority 2018, dated 2024)

How the values were obtained:
[1] = tested on: CNE nasopharyngeal tumor; assay: Subcutaneous CNE nasopharyngeal tumor model; assay type: in vivo, mice; conditions: four injections once per week; 4 mg/kg DM1 (complex also 26 mg/kg DTX)
Procedure: Antitumor efficacy and toxicity for the stereocomplex and DM1-containing prodrug were assessed in a subcutaneous CNE nasopharyngeal tumor model when the treatment is delivered via intravenous injection. Cell suspensions were injected subcutaneously on the backs of mice to establish the tumor model. When tumor volume reached approximately 100 mm^3, groups of tumor bearing mice (n=5) were injected with the complex through the tail vein.

[2] = In vitro release of DM1 by dialysis with or without GSH; assay type: physicochemical
Procedure: The release of poly-DM1 was performed by dialysis in phosphate buffered saline (pH 7.4, containing 0.2% w/v polysorbate 80) with or without 10 mM glutathione (GSH). Briefly, 1 mL of the poly-DM1 formulation with the concentration of DM1 adjusted to 0.5 mg/mL by PBS was placed in a dialysis bag (MWCO=3.5k Da), which was sealed. After being immediately immersed in 10 mL release medium, the sample was incubated at 37° C. At scheduled time intervals (4, 8, 24, 48 h), 1 mL of the external release medium was taken out and replenished with an equal volume of fresh medium. All released samples were freeze-dried and the amount of released DM1 was determined using HPLC measurements as described previously.
Release of DM1 from the stereocomplex over time, with and without glutathione (GSH) was measured at pH 7.4; results are presented in FIG. 16B. DM1 is released from the isolated prodrug most quickly in the presence of GSH (squares) and more slowly from the stereocomplex (circles). In the absence of glutathione, DM1 is essentially not released from either the isolated prodrug or the complex (triangles and inverted triangles at 0% cumulative release). Thus, conjugation of DM1 with a redox-sensitive disulfide linker prohibits premature release of DM1 without GSH.

[3] = tested on: MiA PaCa-2 pancreatic tumor; assay: Subcutaneous MiA PaCa-2 pancreatic tumor model; assay type: in vivo, mice; conditions: four injections for D-DM1, two injections for the stereocomplex
Procedure: In vivo antitumor efficacy of the complex was assessed in a subcutaneous MiA PaCa-2 pancreatic tumor model. MiA PaCa-2 cell suspensions were injected subcutaneously on the backs of mice to establish the tumor model. When tumor volume reached approximately 140 mm^3, groups of tumor bearing mice (n=5) were injected through the tail vein on day 1 and day 14 of an approximately 40-day trial.
Antitumor efficacy and toxicity for the stereocomplex and DM1-containing prodrug were assessed in a subcutaneous MiaPaCa-2 pancreatic tumor model. MiA PaCa-2 cell suspensions were injected subcutaneously on the backs of mice to establish the tumor model. When tumor volume reached approximately 140 mm^3, groups of tumor-bearing mice (n=5) were injected with treatment through the tail vein.

[4] = Tolerance of formulations in mice without tumors; assay type: in vivo; conditions: healthy mice, tail vein days 1, 8, 15, 22
Procedure: Healthy mice (n=5 for each treatment group) were injected on days 1, 8, 15, and 22 of a 28-day trial in the tail vein with either the DM1-containing prodrug at 4 mg/kg, the DM1-containing prodrug plus mPEG-PLLA at 4 mg/kg, or the stereocomplex with 4 mg/kg DM1 and 27 mg/kg DTX per injection and body weight was monitored to determine tolerance of the treatments. […] Healthy mice (n=5 for each treatment group) were injected with complex at 3.6 mg/kg DM1 once/week for total three injections, at 5 mg/kg DM1 once/two weeks for total two injections and at 7 mg/kg DM1 only once, respectively.

Q: Which tumor volume [1] does the source give for mPEG-PDLA-SS-DM1 [D-DM1] here?
A: tumor volume increased significantly

Q: And the “cumulative release of DM1” value ([2]; pH 7.4, in the absence of glutathione)?
A: 0%

Q: What about the “Release of DM1 over time” value ([2]; pH 7.4, in the presence of GSH (10 mM)) of the same substance?
A: most quickly

Q: What about the “antitumor effect (tumor volume)” value [3] of the same substance?
A: almost the same antitumor effect

Q: And the “toxicity: mouse death and body weight” value [3]?
A: induced mouse death and obvious body weight decrease

Q: What about the “tail swelling and ulceration” value ([4]; 4 mg/kg DM1) of the same substance?
A: two mice showed tail swelling and ulceration on days 8-14

Q: And the Body weight ([4]; 4 mg/kg DM1 (stereocomplex also 27 mg/kg DTX), 28-day trial)?
A: increased slightly
